In patent US11054428B2, “Inhalable nanosensors with volatile reporters and uses thereof” (Massachusetts Institute of Technology, priority 2018, dated 2021):

How the values were obtained:
[1] = target: T1, neutrophil elastase (NE) (Mus musculus, UniProt Q3UP87); experiment: Mechanistic study: NE inhibitor given before nanosensor in infected mice, breath signal; assay type: in vivo; conditions: 5 mg/kg intratracheal, 15 min before nanosensor, infected mice (FIG. 12)
T1 construct: from tissue; host or cells: lungs of CD-1 mice, healthy or infected with P. aeruginosa PAO1 (homogenates ex vivo, or lung in vivo)
T1 sequence (Q3UP87 27-265): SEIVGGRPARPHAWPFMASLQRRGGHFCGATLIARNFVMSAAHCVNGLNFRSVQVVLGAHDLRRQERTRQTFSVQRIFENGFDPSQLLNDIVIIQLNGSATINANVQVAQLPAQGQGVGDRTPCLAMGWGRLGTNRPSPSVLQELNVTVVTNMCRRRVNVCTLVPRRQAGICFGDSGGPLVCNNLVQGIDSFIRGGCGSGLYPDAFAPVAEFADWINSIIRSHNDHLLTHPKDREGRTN

[2] = target: T1, neutrophil elastase (NE); assay type: in vivo, mice
Procedure: With confirmation that infected lungs trigger greater reporter release and at detectable levels, nanosensors were then tested in acute pneumonia mouse models. […] Infected-7 and Infected-12, which have high initial reporter levels, have nanosensors predominantly in the airway. […] Reporters released from the sensor in the airways are expected to be expired in the breath more rapidly than free reporters deeper in the lung as the tidal volume is only a fraction of the total volume of the lung. […] In fact, infected breath samples at 16 min (18 min post-injection) have 3-fold higher mean reporter levels than breath samples from healthy controls (p=0.0035) (FIG. 4E and FIG. 6, right).
Therefore, subsequent studies focused on nanosensors with pentafluoropropylamine or heptafluoropropylamine reporters. […] Breath signal was reduced by ˜70% due to inhibitor administration, confirming the role of NE in releasing reporters in vivo to generate breath signal (FIG. 12).

[3] = target: T2, lung homogenates (neutrophil elastase) (Mus musculus, UniProt Q3UP87); experiment: Ex vivo reporter release from nanosensors mixed with infected and healthy lung homogenates; set-up: species or system CD-1 mice; conditions: 24 h post-inoculation with P. aeruginosa PAO1 (FIG. 3C)
T2 construct: from tissue; host or cells: lungs of CD-1 mice, healthy or infected with P. aeruginosa PAO1 (homogenates ex vivo, or lung in vivo)
T2 sequence (Q3UP87 27-265): T1 sequence (Q3UP87 27-265)
Procedure: Ultimately, the goal was to administer nanosensors into the lungs of mouse models of bacterial pneumonia to test for measurable reporter levels in the breath. Prior to direct administration into animal infection models, nanosensors were mixed ex vivo with infected and healthy lung homogenates. Bacterial pneumonia was established in CD-1 mice by intratracheal injection of 1.5×10^6 cfu Pseudomonas aeruginosa strain PAO1 (FIG. 3A). At 24 h post-inoculation, the time at which mice were euthanized and lung homogenates were prepared, infected lung homogenates had ˜22-fold greater neutrophil elastase concentration than healthy lung homogenates (FIG. 3B and FIG. 7). […] When mixed with nanosensors, infected lung homogenates triggered 5-fold faster reporter release compared to healthy lung homogenates (FIG. 3C).

reduction of breath signal [1] [%] | Compound | breath signal, infected vs healthy mice ([2]; 10, 20 and 30 min after administration, low and high doses (FIGS. 10A-10B)) | dose dependence of breath signal ([2]; 10 vs 100 μM doses) | AUROC for identifying infected mice by breath signal ([2]; 10 min, low dose (10 μM), p=0.0062) | mean reporter levels in breath, infected vs healthy controls ([2]; 16 min timepoint (18 min post-injection), p=0.0035) [fold] | reporter levels in breath, infected vs healthy (2-way ANOVA) ([2]; 20 min breath collection, p<0.05) | duration of SNR >1.0 relative to unattached peptide substrate ([2]; FIG. 11B) [×] | reporter levels in breath, infected mice vs healthy controls after convergence ([2]; after first 14 min of breath collection (FIG. 4B)) [fold] | time to disease-distinguishing reporter signal in the breath ([2]; after inhalation) [min] | earliest time of perfect distinction between mice with and without bacterial pneumonia ([2]; after nanosensor inhalation) [min] | breath signal vs peptide substrate unattached to scaffold ([2]; infected mice (FIG. 11A)) | timepoint of maximum effect size of reporter levels ([2]; infected vs healthy (FIG. 4D)) [min] | detectability of reporter levels in breath ([2]; intratracheal instillation, 10 μM equivalent peptide dose) | reporter release rate, infected vs healthy lung homogenates [3] [fold]
~70 | CC(C)(C)C(=O)Oc1ccc(S(=O)(=O)Nc2ccccc2C(=O)NCC(=O)O)cc1 [sivelestat] |  |  |  |  |  |  |  |  |  |  |  |  | 
 | nanosensor: NE peptide substrate Nle(O-Bzl)-Met(O)2-Oic-Abu with C-terminal PFC reporter, conjugated via CKKK-PEG4 linker to 40 kDa 8-arm PEG; pentafluoropropylamine reporter in vivo (CKKKXXXX; not fully specified; non-natural residues) | significantly higher | dose-dependent | 1.0 | 3 | significantly greater | ~3 | ~3 | ≤ 20 | ≥ 12 | higher breath signal than peptide substrates | 16 | detectable | 5
